doi:10.1101/2021.03.15.435402, “GTP and lipids control self-assembly and functional promiscuity of Dynamin2 molecular machinery” (bioRxiv, 2021)

Key:
[1] = molecular target: the molecule itself; test: single-molecule fluorescence microscopy (oligomer size from mEGFP intensity); Dyn2-mEGFP (10-20 nM) premixed with 0.2 mM LUVs (Rh-DOPE) added to nanotubes, no GTP; mEGFP fluorescence colocalized with LUVs tethered to the nanotube
[2] = molecular target: the molecule itself; test: single-molecule fluorescence microscopy (oligomer size from mEGFP intensity); Dyn2-mEGFP 20 nM pulse-perfused on membrane nanotubes (40 mol% PE, 0.1 mol% Cy5-PE), protein washed off from the bulk, no nucleotide (apo); total fluorescence divided by the mean intensity of a single mEGFP

B1: Dyn2 labeled with monomeric GFP (Dyn2-mEGFP) (natural protein, UniProt P50570 1-870, looked up)
chain: MGNRGMEELIPLVNKLQDAFSSIGQSCHLDLPQIAVVGGQSAGKSSVLENFVGRDFLPRGSGIVTRRPLILQLIFSKTEHAEFLHCKSKKFTDFDEVRQEIEAETDRVTGTNKGISPVPINLRVYSPHVLNLTLIDLPGITKVPVGDQPPDIEYQIKDMILQFISRESSLILAVTPANMDLANSDALKLAKEVDPQGLRTIGVITKLDLMDEGTDARDVLENKLLPLRRGYIGVVNRSQKDIEGKKDIRAALAAERKFFLSHPAYRHMADRMGTPHLQKTLNQQLTNHIRESLPALRSKLQSQLLSLEKEVEEYKNFRPDDPTRKTKALLQMVQQFGVDFEKRIEGSGDQVDTLELSGGARINRIFHERFPFELVKMEFDEKDLRREISYAIKNIHGVRTGLFTPDLAFEAIVKKQVVKLKEPCLKCVDLVIQELINTVRQCTSKLSSYPRLREETERIVTTYIREREGRTKDQILLLIDIEQSYINTNHEDFIGFANAQQRSTQLNKKRAIPNQGEILVIRRGWLTINNISLMKGGSKEYWFVLTAESLSWYKDEEEKEKKYMLPLDNLKIRDVEKGFMSNKHVFAIFNTEQRNVYKDLRQIELACDSQEDVDSWKASFLRAGVYPEKDQAENEDGAQENTFSMDPQLERQVETIRNLVDSYVAIINKSIRDLMPKTIMHLMINNTKAFIHHELLAYLYSSADQSSLMEESADQAQRRDDMLRMYHALKEALNIIGDISTSTVSTPVPPPVDDTWLQSASSHSPTPQRRPVSSIHPPGRPPAVRGPTPGPPLIPVPVGAAASFSAPPIPSRPGPQSVFANSDLFPAPPQIPSRPVRIPPGIPPGVPSRRPPAAPSRPTIIRPAEPSLLD
notes: Dynamin 2 (Dyn2) fused to monomeric EGFP; source: purified
- stoichiometry N [1]: 38 ± 16 molecules
- stoichiometry N [2]: 12 ± 6 mEGFP units
